Results as given in the DeepSol protein solubility set.

Test: soluble on expression in E. coli; label from the status in PepcDB or PDB records

Row | Sequence | soluble on expression in E. coli
1 | MNFGACPADIEDDEVVASFNVYASPALVNQAHIFQYPLRRRQRPYEATEIKLFSTSGTVAEESEALLAQGKGSSVLQPGSRLTMKCSLDTFGSPSFRPLPEFAPDMLGQMELQRHHTFNYTLQSQPFLPQSNYVLGYITLEGIHLTPVSTIQQFTPALSIPESSTGAVRVTEAFCSQSNSTAMPGFAAADRIQRELRRQRSRVLNGEADTAQEIQFFRDDSVESSAMRSRLCSSTLERITGNLNAASEPAEVENSLFPPEILQSGGISGGDEAHPSMIIHRFANCKSVAEQTNQLLQRCHILTLQRLQNIVVPYTSNEVVKTMSTVPEAQLVEALKSCAVWLHGVWVSRYCDQFRGSVAALREVILARFYQSEDGSVARADFNAWITTSAARRSIKEILATVAVLNTDEPDPSKRRWRLKYVPEDRAAREANLRDFKAKFAAEEASQHEAWRRRCAQVMAHIPYINAGRPVSQLCLRPRSTPPTTGTAASATLPYGSPNAAQSIAPSVSSMTSGHSGSGVTASASPFSSPAPGADLGFKDADIAPIRHYIRELFAEHGVINKQRVKDLVIKAQEARYPHATKAMLSTALQQCLDKFTDATWILKSAGEPIVDYYRPAILYVVLELRQFEMAALMKRLEEVVRARGLTSPPESAALRGRIGGASGTLEAVVQRVVAEVAEFKAGGRLWHIKGGNLMNE | not soluble
2 | MKAYLHVASGKTFSGELAAPLEEKVSGEIVFFTGMTGYQEVLTDPSYKNQIIVFTYPLIGNYGINENDFESKRPHVEAVVVYEASREGFHYGAKYSLAEYLQHWNIPLLTHVDTRALVKEIRTAGTMMAELSLSPISAVGGEEAVFPVRAVSTKTIETYGEGGPHLVLVDFGYKKSILQSLLARGCRVTVVPHDTTPEAIDALKPDGLVLSNGPGDPKQLRHQLPAIRQLIDRYPTLAICLGHQLVALAYGADTEKLRFGHRGANQPVWDAVKQNVMMTSQNHSYVVKEGSLVGKPFDIRFINVNDGSVEGIVHRHKPILSVQYHPEAHPGPHDTGYIFDEFLQTVFKGENVYA | soluble
3 | MPPDEIEIEPVRQSSDKMLYCEAESPPTVEKVKPARENSETDLEIEDDEKFFTTGQKELYLEACKLMGVVPVSYFIRNMEESYVNLNHHGLGPRGTKAIAIALVSNMAVTKLELEDNCIMEEGVLSLVEMLQENYYLQEMNISNNHLGLEGARIISDFFERNSSSIWSLELSGNDFKEDSAALLCQALSTNYQIKKLDLSHNQFSDVGGEHLGQMLAINVGLTSLDLSWNNFHTRGAVALCNGLRGNVTLTKLDLSMNGFGNEVALALGEVLRLNRCLVYLDIGGNDIGNEGASKISKGLESNESLRVLKLFLNPINMDGAILLILAIKRNPKSRMEELDISNVLVSEQFMKTLDGVYAVHPQLDVVFKAVQGLSPKKTIFLLTNPMKLIQSYADQHKITIVDFFKSLNPTGTMKMSVDEFQKVMIEQNKVPLNQYQVREVIKKLDEKTGMVNFSFLNTMKP | soluble
4 | GPGSMAEEIRTMIIGTSSAFRANVLREHFGDRFRNFVLLPPDIDEKAYRAADPFELTESIARAKMKAVLEKARQHSPPISGPAIALTFDQVVVKGDEVREKPLSTEQCRSFIASYSGGGVRTVATYALCVVGTENVLVAHNETETFFSKFGDDIVERTLERGACMNSAGGLVVEDEDMSRHVVRIVGTSYGVRGMEPAVVEKLLSQL | soluble
5 | MKSIISLMAACAIGAASFAAPAFAQDKGSVGIAMPTKSSARWIDDGNNIVKQLQEAGYKTDLQYADDDIPNQLSQIENMVTKGVKVLVIASIDGTTLSDVLKQAGEQGIKVIAYDRLIRNSGDVSYYATFDNFQVGVLQATSITDKLGLKDGKGPFNIELFGGSPDDNNAFFFYDGAMSVLKPYIDSGKLVVKSGQMGMDKVGTLRWDPATAQARMDNLLSAYYTDAKVDAVLSPYDGLSIGIISSLKGVGYGTKDQPLPVVSGQDAEVPSVKSIIAGEQYSTIFKDTRELAKVTVNMVNAVMEGKEPEVNDTKTYENGVKVVPSYLLKPVAVTKENYKQVLVDGGYYKEDQLK | not soluble
6 | AHHHHHHGSEAWRGRSQAVVDNLAPRVVDMLVPEGFKPTQEEQLSSYDVEKKELATVYMITLVSGSGEKEEEVEEETPTQTETQTPTETRTETKTPTETTTTTPTETKETPTQTTTTQPARTETQGGICGPGLIVLLAALGVLRRRS | not soluble
7 | MAGYGAKGIRKVGAFRSGLEDKVSKQLESKGIKFEYEEWKVPYVIPASNHTYTPDFLLPNGIFVETAGLWESDDRKKHLLIREQHPELDIRIVFSSSRTKLYKGSPTSYGEFCEKHGIKFADKLIPAEWIKEPKKEVPFDRLKRKGGKK | soluble
8 | MAGDPMTPTQNVPEDRIQIGQLRSAYGLNGWLWVYSNTEPMSNMFDYLPWFIETKAGWQTVDVKRWKPHGKGLVVSLKNVSDRNAAESLIGSTIWVAKSQLPKTDVDEYYWSDLKGLTVLGLDEEEQEVNLGQIHELFETGANDVMVVRATADSVDAEERMIPWHKDVVQRVDLEAGRIYVNWGVDYLEHHHHHH | soluble
9 | GAVETLQGKAATGELLEKSVNTIRFLAIDAVEKANSGHPGLPMGCAPMGHVLYDEVMRYNPKNPYWFNRDRFVLSAGHGCMLQYALLHLAGYDSVKEEDLKQFRQWGSRTPGHPENFETPGVEVTTGPLGQGIANAVGLALAEKHLAARFNKPDSEIVDHYTYVILGDGCQMEGIANEACSLAGHWGLGKLIAFYDDNHISIDGDTEIAFTEDVSTRFEALGWHTIWVKNGNTGYDDIRAAIKEAKAVTDKPTLIKVTTTIGFGSPNKANSYSVHGSALGAKEVEATRQNLGWPYDTFFVPEDVKSHWSRHTPEGAALEADWNAKFAEYEKKYADDAATLKSIITGELPTGWVDALPKYTPESPGDATRNLSQQCLNALANVVPGLIGGSADLASSNMTLLKMFGDFQKDTAEERNVRFGVREHGMGAICNGIALHSPGFVPYCATFFVFTDYMRGAMRISALSEAGVIYVMTHDSIGLGEDGPTHQPIEHLVSFRAMPNILMLRPADGNETAGAYKVAVLNRKRPSILALSRQKLPHLPGTSIEGVEKGGYTISDNSTGNKPDLIVMGTGSELEIAAKAADELRKEGKTVRVVSFVSWELFDEQSDEYKESVLPAAVTARISIEAGSTLGWQKYVGAQGKAIGIDKFGASAPAGTIYKEYGITVESIIAAAKSF | soluble
10 | MGSDKIHHHHHHMSEYIQLYRYLNSRLPGVERKRLVLLTGARQTGKTTLAKAKYADLRYVNLDAPENREAVRTIASAFWARDIGPAVLDEAQKEPVVFDKVKYAYDDGALSFSVLLGSSQILLLKKIRETLAGRISIYELWPLLMSEICNGSAAPPSSPPLVDCLFSDMTCDDFFGDKPGILLDMEDACRRRAEEHLLQWGGMPSLLPLNTEERRQWLKDYGYTYLERDMADLARLEDLMPFRKFQRLAALRSGCLLNYSELARDAAISVDTARRYLEYLRLSYQTVFLPPYHVNLTSAVVKTPKVYWLDVGLLRQLSGMQGPTTGEIYETMVVGELMKWMKTAGREGDVFFYRTRSGLEVDVLLETPSGVVGMEIKSRRVLAARDLTGLKEIALALGPRWRGGLVIYQGDELKRIGTPQLWAVPSRRLFTGIE | not soluble
11 | MTPRSLVRIVGVVVATTLALVSAPAGGRAAHADPCSDIAVVFARGTHQASGLGDVGEAFVDSLTSQVGGRSIGVYAVNYPASDDYRASASNGSDDASAHIQRTVASCPNTRIVLGGYSQGATVIDLSTSAMPPAVADHVAAVALFGEPSSGFSSMLWGGGSLPTIGPLYSSKTINLCAPDDPICTGGGNIMAHVSYVQSGMTSQAATFAANRLDHAG | not soluble
12 | MGHHHHHHSHMSQPPLLPASAETRKFTRALSKPGTAAELRQSVSEVVRGSVLLAKPKLIEPLDYENVIVQKKTQILNDCLREMLLFPYDDFQTAILRRQGRYICSTVPAKAEEEAQSLFVTECIKTYNSDWHLVNYKYEDYSGEFRQLPNKVVKLDKLP | not soluble
13 | MCMPRYTQPKKTWFYPVNFKIKAVELSLRNDMLSKDVAQALDIHPLMLSRWRKEYREGKFKKNQHYQSNSELMSKIPTKKELNKIKQLQKENDRLKMENDLLKKWQRYLAEVHQSDLDSSKNTKKPLEHHHHHH | soluble
14 | MPEEYIMSSKACIYVLGGAANTAALFDFDGVYILDGGFAEKNPGFVAHVRDVSAVLLAAPTLGNLGTTSALLEQGKPLPVFTNTKPFKTAKPGSSGEIAKAIQEANSKILSVAPPLFNPKYPANIIYQSAAKGVLSLYILAGDVKDAEVITKALAGGNEAEVEKAAAEHGTIGVLLWRPAMTDQSVVRVLISGTSSLSRIQQSLDKAAKSLPFLNVPTVKSKDALSDIPAPAVPRPVAGKPSARPATTTGTATRPTRPAVPAASAPRALTSRAPAGPSRPTTTRNAAPAPRTAVPSRATVLTKTAPASKAPTRAPVPARSAPAPPRGAPAKPAANTAKAEPIAQKKTVGKVQGTAPSKPAPAAPASAATSPAPAPEAPRRDPNNVTIVLDDSLSPEDFNQGSAPMDIVVIPPTPEPPRHEVAQATHPEESIIDAEDLAKAPLEVDDVANLADVEDEIPPPVDAFKKPEPHPEPNVSGGSEEDKIPEPVDAFKKPDPVELDDFDPLKPSHPEPSAPVVPSDHIIIATPDPELPDIVAAVPFVSPSPKGPNDGLVKLDDELEKIAPGFEEPLIPQAPRDDGTLAECSEEVSKLVEISMDTDNSAEVAADLAKAVGEVTQLSADLQNLGLDEKTDEYVRKLSNQMIEDATLPFTSALASSIVTSNGSETNGHGEQAHAAQNGGIDHQKEIPKHDLMQSRSSVIENGAAVQYEKTDPALDDVLNACAQESEKIDASHPDNLHMPAAPGSAAPAKPVKFARPYYFDVVTVPRNEKLETSVAADGLQEFISKVRSRNVILASKDISGEQLQAILCGKQTWCDSAHPCNVIPTHSSPMLLDFRQKNEEQFAANNLQFSIPVEKQRTTVSSDAGAIEYELARVDLL | soluble
15 | MVSLPVVLIADKLAPSTVAALGDQVEVRWVDGPDRDKLLAAVPEADALLVRSATTVDAEVLAAAPKLKIVARAGVGLDNVDVDAATARGVLVVNAPTSNIHSAAEHALALLLAASRQIPAADASLREHTWKRSSFSGTEIFGKTVGVVGLGRIGQLVAQRIAAFGAYVVAYDPYVSPARAAQLGIELLSLDDLLARADFISVHLPKTPETAGLIDKEALAKTKPGVIIVNAARGGLVDEAALADAITGGHVRAAGLDVFATEPCTDSPLFELAQVVVTPHLGASTAEAQDRAGTDVAESVRLALAGEFVPDAVNVGGGVVNEEVAPWLDLVRKLGVLAGVLSDELPVSLSVQVRGELAAEEVEVLRLSALRGLFSAVIEDAVTFVNAPALAAERGVTAEICKASESPNHRSVVDVRAVGADGSVVTVSGTLYGPQLSQKIVQINGRHFDLRAQGINLIIHYVDRPGALGKIGTLLGTAGVNIQAAQLSEDAEGPGATILLRLDQDVPDDVRTAIAAAVDAYKLEVVDLS | soluble
16 | MGSDKIHHHHHHADSVKIGFITDMSGLYADIDGQGGLEAIKMAVADFGGKVNGKPIEVVYADHQNKADIAASKAREWMDRGGLDLLVGGTNSATALSMNQVAAEKKKVYINIGAGADTLTNEQCTPYTVHYAYDTMALAKGTGSAVVKQGGKTWFFLTADYAFGKALEKNTADVVKANGGKVLGEVRHPLSASDFSSFLLQAQSSKAQILGLANAGGDTVNAIKAAKEFGITKTMKLAALLMFINDVHALGLETTQGLVLTDSWYWNRDQASRQWAQRYFAKMKKMPSSLQAADYSSVTTYLKAVQAAGSTDSDKVMAQLKKMKIDDFYAKGYIRTDGSMIHDMYLMEVKKPSESKEPWDYYKVVATIPGEQAFTTKQETRCALWK | not soluble
